{"source": "patent US20130183688A1", "about": "(BRIGHAM AND WOMEN S HOSPITAL, published 2013)", "binders": {"B1": {"name": "TIM-2-Ig (Fc fusion, UniProt Q8R183 22-231, looked up)", "chain": "HTAVQGLAGHPVTLPCIYSTHLGGIVPMCWGLGECRHSYCIRSLIWTNGYTVTHQRNSLYQLKGNISEGNVSLTIENTVVGDGGPYCCVVEIPGAFHFVDYMLEVKPEISTSPPTRPTATGRPTTISTRSTHVPTSTRVSTSTSPTPAHTETYKPEATTFYPDQTTAEVTETLPDTPADWHNTVTSSDDPWDDNTEVIPPQKPQKNLNKG", "notes": "Control Ig fusion; also called TIM-2 Ig fusion; not shown: Ig part of the fusion not described"}, "B2": {"name": "soluble Tim-3-Ig fusion protein (s-Tim-3-Ig) (Fc fusion)", "chain": "LEDGYKVEVGKNAYLPCSYTLPTSGTLVPMCWGKGFCPWSQCTNELLRTDERNVTYQKSSRYQLKGDLNKGDVSLIIKNVTLDDHGTYCCRIQFPGLMNDKKLELKLDIKA", "modifications": "biotinylated in some cell staining experiments", "notes": "not shown: human IgG1 Fc tail"}, "B3": {"name": "full-length Tim-3-Ig fusion protein (ex-Tim-3-Ig) (Fc fusion)", "chain": "RSLEDGYKVEVGKNAYLPCSYTLPTSGTLVPMCWGKGFCPWSQCTNELLRTDERNVTYQKSSRYQLKGDLNKGDVSLIIKNVTLDDHGTYCCRIQFPGLMNDKKLELKLDIKAAKVTPAQTAHGDSTTASPRTLTTERNGSETQTLVTLHNNNGTKISTWADEIKDSGETIRTA", "modifications": "biotinylated in some cell staining experiments", "notes": "expressed in NS.1 cells; also called flTIM-3-Ig; flTim-3-Ig; not shown: human IgG1 Fc tail"}}, "key": {"[1]": {"target": "T1, recombinant galectin-9 (r-galectin-9) (mouse, UniProt O08573 1-353)", "T1 construct": "Any vector-derived tag is not described; also called purified recombinant galectin-9", "T1 sequence (O08573 other isoform, or with tags, fused parts or gaps limits assumed)": "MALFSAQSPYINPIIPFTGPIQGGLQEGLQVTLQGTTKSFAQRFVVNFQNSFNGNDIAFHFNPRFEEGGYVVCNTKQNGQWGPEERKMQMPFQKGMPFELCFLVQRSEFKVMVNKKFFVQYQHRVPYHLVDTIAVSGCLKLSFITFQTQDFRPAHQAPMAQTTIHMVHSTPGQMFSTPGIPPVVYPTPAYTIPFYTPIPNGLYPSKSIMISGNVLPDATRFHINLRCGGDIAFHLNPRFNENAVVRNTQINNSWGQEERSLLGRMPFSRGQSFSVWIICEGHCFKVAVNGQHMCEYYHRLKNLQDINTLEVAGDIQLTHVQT", "assay": "pull-down with protein G beads, SDS-PAGE, Coomassie blue", "description": "(§1) FIG. 11A Both regular and long isoforms for galectin-9 (galectin-9 and galectin-9-L respectively) are able to bind to TIM-3. Protein sequences between two galectin-9 isoforms are identical except a 31 amino acid peptide insert in the hinge region of galectin-9-L. Murine cDNAs for isoforms of galectin-9 from TK-1 cells were subcloned into a eukaryotic bicistronic expression vector pIRES2-EGFP. The plasmids were transiently transfected into CHO cells respectively. Cells were fixed for intracellular staining with flTIM-3-Ig (top row graphs), sTIM-3-Ig (center row graphs), and hIgG (bottom row graphs) and detected by anti-human IgG-Fc-PE 48 hours after transfection. EGFP positive signals in FACS analyses indicated transfected cells. The anti-human IgG-Fc-PE was used to detect the binding from Ig fusions or hIgG. FIG. 11B Murine cDNAs for galectin-9 (first column graphs), -4 (second column graphs), -3 (third column graphs), and -1 (fourth column graphs) were subcloned into pIRES2-EGFP. The plasmids and the empty vector (fifth column graphs) that only produces EGFP were transiently transfected into CHO for intracellular staining by s-TIM-3-Ig respectively. The anti-human IgG-Fc-PE was used to detect sTIM-3-Ig binding. FIG. 11C Galectin-9 cDNA was subcloned into prokaryotic expression vector pTrcHis 2B. […]"}, "[2]": {"target": "T2, murine galectin-9 (regular isoform), expressed in transiently transfected CHO cells (mouse, UniProt O08573 1-353)", "T2 construct": "Expressed from pIRES2-EGFP in CHO cells; not found on the cell surface, detected by intracellular staining of fixed cells; also called regular galectin-9; wt galectin-9", "assay": "intracellular staining of galectin-9 transfected CHO cells, flow cytometry"}, "[3]": {"target": "T3, galectin-9 of TK-1 cells (biotinylated membrane associated 40 to 60 kD band, 35 kD after PNGase F) (UniProt O08573-2 1-322, limits assumed, surface biotinylated with NHS-LC-Biotin)", "T3 construct": "Endogenous protein pulled down from cell lysate; also called 35 kD protein", "T3 sequence (O08573 other isoform, or with tags, fused parts or gaps limits assumed)": "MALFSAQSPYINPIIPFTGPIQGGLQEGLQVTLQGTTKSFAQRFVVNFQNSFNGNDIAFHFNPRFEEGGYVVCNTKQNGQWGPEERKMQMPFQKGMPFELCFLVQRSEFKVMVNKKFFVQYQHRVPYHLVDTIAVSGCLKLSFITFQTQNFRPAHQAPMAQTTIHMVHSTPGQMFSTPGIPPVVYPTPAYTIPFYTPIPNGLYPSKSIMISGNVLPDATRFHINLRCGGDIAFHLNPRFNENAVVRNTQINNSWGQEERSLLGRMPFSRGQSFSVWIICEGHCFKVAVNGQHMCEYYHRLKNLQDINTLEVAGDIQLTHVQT", "assay": "pull-down from lysate of surface biotinylated TK-1 cells, Protein G-agarose, Western blot", "method": "FIG. 10A TK-1 cells express the highest level of TIM-3 ligand(s). Three T cell lines, TK-1, S49.1G.3PHA 100/0, and BW1547.G.1.4, were stained by biotinylated sTIM-3-Ig (0.4 mg/ml) at 1:20 (top row graphs) and 1:50 dilutions (center row graphs), and detected by anti-human IgG-Fc-PE for the TIM-3 ligand expression. All T cell lines are stained positively by TIM-3 fusions FACS analysis, among which up to 90% of TK-1 were positively stained by both flTIM-3-Ig and sTIM-3-Ig (bottom row graphs). […] Extracellular membrane associated proteins on live TK-1 cells were biotinylated by NHS-LC-Biotin in PBS pH7.9 buffer at room temperature. Reaction was stopped by DMEM medium after 1 hour incubation. Cell lysate from the biotinylated TK-1 cells was used in pull-down experiment by incubating with 5 μg flTIM-3-Ig, sTIM-3-Ig, TIM-2-Ig, and hIgG respectively plus Protein G-agarose beads at 4° C. Protein samples eluted from beads were treated with or without PNGase F to remove N-linked sugar chains, and applied to SDS-PAGE and Western blot. Only signals from biotinylated membrane associated proteins bound to avidin conjugated peroxidase and were detected by chemiluminescent signal. […]"}, "[4]": {"target": "T4, galectin-9 R238A (mutation in C-terminal CRD domain), expressed in CHO cells (mouse, UniProt O08573 1-353)", "T4 construct": "Intracellular staining; also called mutant galectin-9 C-terminal CRD", "T4 sequence (O08573 other isoform, or with tags, fused parts or gaps R238A R238A)": "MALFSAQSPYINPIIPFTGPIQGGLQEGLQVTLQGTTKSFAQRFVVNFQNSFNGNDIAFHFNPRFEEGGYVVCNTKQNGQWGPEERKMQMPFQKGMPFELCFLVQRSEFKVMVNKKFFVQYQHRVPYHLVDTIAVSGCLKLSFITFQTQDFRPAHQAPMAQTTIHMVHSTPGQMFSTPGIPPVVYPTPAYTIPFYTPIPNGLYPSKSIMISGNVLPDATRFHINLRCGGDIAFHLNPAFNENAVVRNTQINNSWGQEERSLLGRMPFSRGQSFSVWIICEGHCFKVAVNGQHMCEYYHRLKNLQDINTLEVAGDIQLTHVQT", "assay": "intracellular staining of transfected CHO cells by sTIM-3-Ig, flow cytometry", "method": "(§2) FIGS. 12A-12C show galectin-9 recognizes the β-galactoside bond in oligosaccharide chains of TIM-3. FIG. 12A Galectin-9 expression plasmid was transiently transfected into CHO cells and fixed for intracellular staining by sTIM-3-Ig. Incubation buffers with different concentrations from 0 to 100 mM of α-lactose were used in the experiments. Bars in the histograph represent percentage of double positive cell population for EGFP and sTIM-3-Ig staining in presence of different concentration of a-lactose. FIG. 12B Two μg of r-galectin-9 was mixed with 4 μg sTIM-3-Ig in presence of different concentration of a-lactose from 0 to 100 mM in a pull-down experiment. Elutes from protein G beads were applied to SDS-PAGE and stained by Coomassie blue. A band at 50 kD represents sTIM-3-Ig, and the one at 38 kD stands for r-galectin-9. FIG. 12C CRD domains in galectin-9 are required for interaction with TIM-3. Constructs with mutation of R64A in N-terminal CRD domain (second column graphs), R238A in C-terminal CRD domain (third column graphs), or both (fourth column graphs) were generated and subcloned into expression vector pIRES2-EGFP. CHO cells were transiently transfected by wt (first column graphs) and mutant galection-9 expression plasmids (second through fourth column graphs) for intracellular staining by sTIM-3-Ig. EGFP and anti-human IgG-Fc-PE double positive standard for interaction between galectin-9 and sTIM-3-Ig."}, "[5]": {"target": "T5, galectin-9 R64A and R238A (double mutation in both CRD domains), expressed in CHO cells (mouse, UniProt O08573 1-353)", "T5 construct": "Intracellular staining; also called double mutant galectin-9", "T5 sequence (O08573 other isoform, or with tags, fused parts or gaps R64A R238A R64A R238A)": "as the sequence (O08573 other isoform, or with tags, fused parts or gaps R238A R238A) above, with R64A counted along it", "assay": "intracellular staining of transfected CHO cells by sTIM-3-Ig, flow cytometry", "method": "as §2"}, "[6]": {"target": "T6, galectin-9 R64A (mutation in N-terminal CRD domain), expressed in CHO cells (mouse, UniProt O08573 1-353)", "T6 construct": "Intracellular staining; also called mutant galectin-9 N-terminal CRD", "T6 sequence (O08573 other isoform, or with tags, fused parts or gaps R64A R64A)": "as the sequence (O08573 other isoform, or with tags, fused parts or gaps R238A R238A) above, with R64A, A238R counted along it", "assay": "intracellular staining of transfected CHO cells by sTIM-3-Ig, flow cytometry", "method": "as §2"}, "[7]": {"target": "T7, murine galectin-9 long isoform (galectin-9-L), expressed in transiently transfected CHO cells (mouse, UniProt O08573 1-353)", "T7 construct": "Expressed from pIRES2-EGFP in CHO cells; intracellular staining of fixed cells", "T7 sequence (O08573 whole entry, canonical isoform)": "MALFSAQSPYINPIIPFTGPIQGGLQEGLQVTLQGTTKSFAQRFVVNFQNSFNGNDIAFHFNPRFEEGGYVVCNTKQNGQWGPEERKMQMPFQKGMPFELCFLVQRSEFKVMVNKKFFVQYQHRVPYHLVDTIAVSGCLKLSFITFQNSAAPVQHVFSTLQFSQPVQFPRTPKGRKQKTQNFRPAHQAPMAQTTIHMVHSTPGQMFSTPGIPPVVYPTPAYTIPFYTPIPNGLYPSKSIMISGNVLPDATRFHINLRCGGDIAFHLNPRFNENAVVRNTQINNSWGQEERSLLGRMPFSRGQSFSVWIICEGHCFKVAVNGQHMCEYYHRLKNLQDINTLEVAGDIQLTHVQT", "assay": "intracellular staining of transfected CHO cells, anti-human IgG-Fc-PE, flow cytometry", "description": "as §1, with “pIRES2-EGFP.” for “pIRES2-EGFP. The plasmids and the empty vector (fifth column graphs) that only produces EGFP were transiently transfected into CHO for intracellular staining by s-TIM-3-Ig respectively. The anti-human IgG-Fc-PE was used to detect sTIM-3-Ig binding. FIG. 11C Galectin-9 cDNA was subcloned into prokaryotic expression vector pTrcHis 2B.”\nTo confirm the interaction between galectin-9 and TIM-3, both galectin-9 isoform cDNAs were subcloned into an expression vector that bicistronically expresses EGFP protein. […] In transient transfection, expression of galectin-9 was not detected on the cell surface. […]"}}}
{"binder": "B1", "values": [{"measurement": "binding result", "setting": "[1]", "result": "no binding"}, {"measurement": "binding result", "setting": "[2]", "result": "no binding"}, {"measurement": "binding result", "setting": "[3]", "result": "no binding (tested: 5 µg)"}]}
{"binder": "B2", "values": [{"measurement": "binding result", "setting": "[4]", "result": "binds"}, {"measurement": "binding result", "setting": "[5]", "result": "no binding"}, {"measurement": "binding result", "setting": "[6]", "result": "binds"}, {"measurement": "binding result", "setting": "[7]", "result": "binds"}]}
{"binder": "B3", "values": [{"measurement": "binding result", "setting": "[7]", "result": "binds"}]}
